Assay results as given in US20230029835A1 (KEYMED BIOSCIENCES, published 2023).
Where two headings read alike, the source gives them in different places.

T1: Cynomolgus macaques TSLP recombinant protein (Cynomolgus macaques, UniProt Q969D9 29-159 (human entry), limits assumed, biotinylated in the blocking assays (sites not given))
T1 construct: also called cyTSLP; biotinylated Cynomolgus macaques TSLP protein
T1 chain: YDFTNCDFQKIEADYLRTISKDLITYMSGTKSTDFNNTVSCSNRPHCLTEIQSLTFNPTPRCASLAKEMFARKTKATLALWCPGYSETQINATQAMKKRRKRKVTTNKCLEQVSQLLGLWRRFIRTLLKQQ


Key:
[1] = biological target: T2, human TSLP recombinant protein (human, UniProt Q969D9 29-159, biotinylated in the blocking and cell-binding assays (sites not given)); assay: cell-based or functional assay
[2] = biological target: T2, human TSLP recombinant protein; assay: cell-based or functional assay; remark: listed apart in the source
[3] = biological target: T2, human TSLP recombinant protein; assay: competition ELISA, biotin-human TSLP to coated human TSLPR-Fc
Description: (§1) Human TSLPR recombinant protein was coated onto a 96-well microtiter plate at 1 μg/mL in carbonate buffer overnight at 4° C. The plate was washed three times with PBS and blocked by adding 200 μL/well of PBS containing 2% skim milk for 1 hour. […] The 96-well plate was washed three times with PBS, and 100 μL of the incubated mixture was added to each well and incubated for 1 hour at room temperature. After washing with PBST and PBS three times, respectively, 100 μL of SA-HRP was added to each well and incubated at room temperature for 30 minutes in the dark. After washing with PBST and PBS three times, respectively, 100 μL of TMB substrate was added to well for color development at 37° C. for 10 minutes, the reaction was terminated with 50 μL of 2M sulfuric acid solution per well, and the absorbance was read at a wavelength of 450 nm.

[4] = biological target: T1, Cynomolgus macaques TSLP recombinant …; assay: competition ELISA, biotin-cynomolgus TSLP to coated cynomolgus TSLPR-Fc
Description: Cynomolgus macaques TSLPR recombinant protein was coated onto a 96-well microtiter plate at 1 g/mL in carbonate buffer overnight at 4° C. The plate was washed three times with PBS and blocked by adding 200 μL/well of PBS containing 2% skim milk for 1 hour. […] The 96-well plate was washed three times with PBS, and 100 μL of the incubated mixture was added to each well and incubated for 1 hour at room temperature. After washing with PBST and PBS three times, respectively, 100 μL of SA-HRP was added to each well and incubated at room temperature for 30 minutes in the dark. After washing with PBST and PBS three times, respectively, 100 μL of TMB substrate was added to well for color development at 37° C. for 10 minutes, the reaction was terminated with 50 μL of 2M sulfuric acid solution per well, and the absorbance was read at a wavelength of 450 nm.

[5] = biological target: T2, human TSLP recombinant protein; assay: flow cytometry competition, biotin-human TSLP to Ba/F3-hTSLPR-IL7Rα cells
Description: Ba/F3-hTSLPR-IL7Rα cells were washed three times with PBS, centrifuged at 300 g for 3 minutes, and blocked with 3% BSA/PBS for 30 minutes. The cells were resuspended and added to a 96-well U-plate at 5×10⁴/well.

[6] = biological target: T2, human TSLP recombinant protein; assay: cell-based or functional assay; remark: listed apart in the source
[7] = biological target: T2, human TSLP recombinant protein; assay: ELISA on coated human TSLP
Description: (§2) The plate was washed three times with PBS and blocked by adding 200 μL/well of PBS containing 2% skim milk for 1 hour. […] After washing with PBST and PBS three times, respectively, 100 μL of TMB substrate was added to each well for color development at 37° C. for 10 minutes, the reaction was terminated with 50 μL of 2M sulfuric acid solution per well, and the absorbance was read at a wavelength of 450 nm.

[8] = biological target: T1, Cynomolgus macaques TSLP recombinant …; assay: ELISA on coated cynomolgus TSLP
Description: as §2

[9] = biological target: T2, human TSLP recombinant protein; assay: competition ELISA, biotin-human TSLP to coated human TSLPR-Fc; remark: listed apart in the source
Description: as §1

[10] = biological target: T2, human TSLP recombinant protein; assay: SPR BIAcore T200, antibody captured on Protein A, human TSLP injected
Description: After each injection cycle, the Protein A chip surface was regenerated with regeneration buffer 10 mM glycine (pH 2.0) at a flow rate of 30 μL/min.
The association rate constant (ka) and dissociation rate constant (kd) and equilibrium dissociation constant KD were analyzed by fitting the resulting data to a Langmuir 1:1 kinetics theoretical model using BIAevaluation software.

[11] = biological target: T1, Cynomolgus macaques TSLP recombinant …; assay: competition ELISA, biotin-cynomolgus TSLP to coated cynomolgus TSLPR-Fc
Description: Cynomolgus macaques TSLPR recombinant protein was coated onto a 96-well microtiter plate at 1 μg/mL in carbonate buffer overnight at 4° C. The plate was washed three times with PBS and blocked by adding 200 μL/well of PBS containing 2% skim milk for 1 hour. […] The 96-well plate was washed three times with PBS, and 100 μL of the incubated mixture was added to each well and incubated for 1 hour at room temperature. After washing with PBST and PBS three times, respectively, 100 μL of SA-HRP was added to each well and incubated at room temperature for 30 minutes in the dark. After washing with PBST and PBS three times, respectively, 100 μL of TMB substrate was added to well for color development at 37° C. for 10 minutes, the reaction was terminated with 50 μL of 2M sulfuric acid solution per well, and the absorbance was read at a wavelength of 450 nm.

[12] = biological target: T2, human TSLP recombinant protein; assay: ELISA on coated human TSLP; remark: listed apart in the source
Description: as §2

[13] = biological target: T1, Cynomolgus macaques TSLP recombinant …; assay: ELISA on coated cynomolgus TSLP
Description: as §2

[14] = biological target: T2, human TSLP recombinant protein; assay: SPR BIAcore T200, antibody captured on Protein A, human TSLP injected; remark: listed apart in the source
Description: (§3) After each injection cycle, the Protein A chip surface was regenerated with regeneration buffer 10 mM glycine (pH 2.0) at a flow rate of 30 μL/min. The association rate constant (ka) and dissociation rate constant (kd) and equilibrium dissociation constant KD were analyzed by fitting the resulting data to a Langmuir 1:1 kinetics theoretical model using BIAevaluation software.

[15] = biological target: T1, Cynomolgus macaques TSLP recombinant …; assay: SPR BIAcore T200, antibody captured on Protein A, cynomolgus TSLP injected
Description: as §3

| Binder | Inhibition of Cell Proliferation IC50 [1] | STAT5 signal inhibition IC50 [2] | IC50 [3] | IC50 [4] | IC50 [5] | Inhibition IC50 of STAT5 reporter gene [6] | EC50 [7] | EC50 [8] | IC50 [9] | Kd [10] | koff [10] | kon [10] | IC50 [11] | EC50 [12] | EC50 [13] | Kd [14] | koff [14] | kon [14] | Kd [15] | koff [15] | also measured |
| --- | --- | --- | --- | --- | --- | --- | --- | --- | --- | --- | --- | --- | --- | --- | --- | --- | --- | --- | --- | --- | --- |
| Murine anti-71G4 (mAb71G4) (antibody, V domains shown, also called murine antibody 71G4) VH: QVQLQQSGAELVMPGASVKMSCKASGYTFTDYWMHWVKQRPGQGLEWIGTIDNSDSDTTYNQKFKGKVTLTVDESSSTAYMQLSSLTSEDSAVYYCARSVDGYLDYWGQGTTLTVSS VL: EIQMTQSPASLSASVGETVTITCRTSENIYSYLAWYQQKQGKSPQLLVYFAKTLTDGVPSRLSGSGSGTQFSLKINSLQPEDFGSYYCQHHYGTPWTFGGGTKLEIK | 30700 pM | 1140 pM | 1980 pM | 470 pM | 270 pM | – | – | – | – | – | – | – | – | – | – | – | – | – | – | – | – |
| Murine anti-39G5 (mAb39G5) (antibody, V domains shown, also called murine antibody 39G5) VH: QVQLLQSGPQLVRPGASVKISCKASGYSFISYWIHWVKQRPGQGLEWIGIIDPSDSDTSLNQKFKDKATLTVDKSSTTAYIQLSSPTSEDSAVYYCARSLDGYYDYWGQGTTLTVSS VL: DIQMTQSPASLSASVGETVTITCRASENIYSYLAWYQQKQGKSPQLLVYNARTLPEGVPSRFSGSGSGTQFSLKINSLQPEDFGIYYCQHHYTTPWTFGGGTKLEIK | 58900 pM | 4920 pM | 1950 pM | 1600 pM | 360 pM | – | – | – | – | – | – | – | – | – | – | – | – | – | – | – | – |
| Ab24 (antibody, V domains shown, Humanized; also called h39G5VHv5/h71G4VKv1; h39G5VHv5/h71G4VKv1 hIgG1) VH: QVQLVQSGAEVKKPGSSVKVSCKASGYTFTDYWMHWVRQAPGQGLEWMGIIDPSDSDTSLNQKFQGRVTLTVDTSTSTAYMELSSLRSEDTAVYYCARSLDGYYDYWGQGTLVTVSS VL: DIQMTQSPSSLSASVGDRVTITCRTSENIYSYLAWYQQKPGKAPKLLIYFAKTLTDGVPSRFSGSGSGTDFTLTISSLQPEDFATYYCQHHYGTPWTFGQGTKVEIK | 1040 pM | 150 pM | 2010 pM | 1630 pM | 360 pM | – | – | – | – | – | – | – | – | 220 pM | 1370 pM | 0.0234 pM | 3.99e-08 s⁻¹ | 1.7e+06 M⁻¹ s⁻¹ | 0.179 pM | 2.85e-07 s⁻¹ | kon [15]: 1.59e+06 M⁻¹ s⁻¹ |
| Ab26 (antibody, V domains shown, Humanized; also called h39G5VHv10/h71G4VKv1; h39G5VHv10/h71G4VKv1 hIgG1) VH: QVQLVQSGAEVKKPGSSVKVSCKASGYTFTDYWMHWVRQAPGQGLEWMGIIDPSDSDTSLNQKFQGRVTITADTSTSTAYMELSSLRSEDTAVYYCARSLDGYYDYWGQGTLVTVSS VL: DIQMTQSPSSLSASVGDRVTITCRTSENIYSYLAWYQQKPGKAPKLLIYFAKTLTDGVPSRFSGSGSGTDFTLTISSLQPEDFATYYCQHHYGTPWTFGQGTKVEIK | 1500 pM | 180 pM | 1660 pM | 690 pM | 390 pM | – | – | – | – | – | – | – | – | 180 pM | 950 pM | 2.03 pM | 2.79e-06 s⁻¹ | 1.37e+06 M⁻¹ s⁻¹ | 0.308 pM | 3.82e-07 s⁻¹ | kon [15]: 1.24e+06 M⁻¹ s⁻¹ |

Now from value to binder, other results behind:

| Inhibition of Cell Proliferation IC50 [1] | STAT5 signal inhibition IC50 [2] | IC50 [3] | IC50 [4] | IC50 [5] | Inhibition IC50 of STAT5 reporter gene [6] | EC50 [7] | EC50 [8] | IC50 [9] | Kd [10] | koff [10] | kon [10] | IC50 [11] | EC50 [12] | EC50 [13] | Kd [14] | koff [14] | kon [14] | Kd [15] | koff [15] | Binder | also measured |
| --- | --- | --- | --- | --- | --- | --- | --- | --- | --- | --- | --- | --- | --- | --- | --- | --- | --- | --- | --- | --- | --- |
| – | – | – | – | – | 5790 pM | 340 pM | 550 pM | 2580 pM | 22.4 pM | 0.000108 s⁻¹ | 4.82e+06 M⁻¹ s⁻¹ | 540 pM | – | – | – | – | – | – | – | 80B12 chimeric antibody (antibody, V domains shown) VH: QVQLQQSGPQLVRPGASVKISCKASGYSFTTYWMHWVKQRPGQGLEWIGLIDPSDGEAGLNQNFKDKATLTVDISSRTAYMQISSPTSEDSAVYFCARSLDGYYDYWGQGTTLTVSS VL: DIQMTQSPASLSASVGETVTITCRASEDIYSYLAWYQQKQGKSPQLLVYNAKTLAEGVPSRFSGSGSGTQFSLKINSLQPEDFGSYYCQHFWSTPWTFGGGTKLELK | – |
| – | – | – | – | – | 13600 pM | 150 pM | 570 pM | 1800 pM | 18.5 pM | 0.000123 s⁻¹ | 6.62e+06 M⁻¹ s⁻¹ | 1150 pM | – | – | – | – | – | – | – | 80E11 chimeric antibody (antibody, V domains shown) VH: QVQLQQSGPQLVRPGASVKISCKASGYSFTSYWMHWVKQRPGQGLEWIGVIDPSDSETILNQKFKDKATLTVDKSSSTAYMQFSSPTSEDSAVYYCARSLDGYYDYWGQGTTLTVSS VL: DIQMTQSPASLSASVGETVTITCRAGENIYSYLAWYQQKQGKSPQLLVYNAKTLAEGVPSRFSGSASGTQFSLKINSLQPEDFGSYYCQHFWGTPWAFGGGTRLEIK | – |
